Assay results taken from publication PMC5154385 (ACS infectious diseases, 2015).

Legend:
[1] = test system: NC[C@H]1O[C@H](O[C@H]2[C@H](O)[C@@H](O[C@H]3O[C@H](CO)[C@@H](O)[C@H](N)[C@H]3O)[C@H](N)C[C@@H]2N)[C@H](O)[C@@H](O)[C@@H]1O; assay: purified protein; conditions: co-substrate AcCoA fixed (printed 0.5 μM), pH 8.0, 25 °C
[2] = test system: NC[C@@H]1O[C@H](O[C@H]2[C@@H](O)[C@H](O[C@@H]3[C@@H](O)[C@H](N)C[C@H](N)[C@H]3O[C@H]3O[C@H](CO)[C@@H](O)[C@H](O)[C@H]3N)O[C@@H]2CO)[C@H](N)[C@@H](O)[C@@H]1O; assay: purified protein; conditions: co-substrate AcCoA fixed (printed 0.5 μM), pH 8.0, 25 °C
Eis_Mab2 = Eis_Mab2 (Mycobacteroides abscessus, UniProt B1MKV6); assay: DTNB; format: biochemical

Row | Compound | Km [1] [µM] | kcat [1] [s⁻¹] | kcat/Km [1] [M⁻¹ s⁻¹] | Km [2] [µM] | kcat [2] [s⁻¹] | kcat/Km [2] [M⁻¹ s⁻¹] | IC50 (Eis_Mab2) [µM]
1 | Eis_Mab2 (Mycobacteroides abscessus ATCC 19977) | 125 ± 27 | 0.124 ± 0.007 | 992 ± 377 | 144 ± 14 | 2.83 ± 0.07 | 19700 ± 1970 | 
2 | [H]/N=C(\N/C(=N/[H])NCCCCCCNC(=N)NC(=N)Nc1ccc(Cl)cc1)Nc1ccc(Cl)cc1 [chlorhexidine] |  |  |  |  |  |  | 4.4 ± 0.9
